Target: T1, Cyp33 RRM domain (1–83) (UniProt Q9UNP9 1-83)
T1 sequence (looked up): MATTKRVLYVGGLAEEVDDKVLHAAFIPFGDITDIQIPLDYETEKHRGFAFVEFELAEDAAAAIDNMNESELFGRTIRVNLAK
Assay: NMR titration

B1: KMT2A PHD3 finger (1565–1627) (domain or fragment, UniProt Q03164 1565-1627, looked up)
chain: KGNFCPLCDKCYDDDDYESKMMQCGKCDRWVHSKCENLSDEMYEILSNLPESVAYTCVNCTER
binding result: binds

Reference: PMC3925188 (Biochimica et biophysica acta, 2013)
